Here are results for one substance from patent US20210269546A1.

For test [1], the target named is human recombinant CD64 (Fc gamma receptor I), R&D Systems (human) (UniProt P12314). The test is described as follows: SPR (Biacore T200), construct captured on Protein A, soluble CD64 as analyte.
In test [2] the target is FcγRIIb (on cells bearing the labeled receptor, TR-FRET) (UniProt P31994). Description: TR-FRET competition (CisBio) on cells bearing the labeled receptor; competitor: labeled antibody.
Test [3] concerns the target FcγRIIaH131 (cell surface CD32a, cells bearing the labeled receptor, TR-FRET) (UniProt P12318). Described as above.
For test [4], the target named is FcγRIIIaV158 (on cells bearing the labeled receptor, TR-FRET) (UniProt P08637). Described as above.
Sequence of FcγRIIIaV158 (on cells bearing the labeled receptor, TR-FRET) (P08637 17-254 F176V): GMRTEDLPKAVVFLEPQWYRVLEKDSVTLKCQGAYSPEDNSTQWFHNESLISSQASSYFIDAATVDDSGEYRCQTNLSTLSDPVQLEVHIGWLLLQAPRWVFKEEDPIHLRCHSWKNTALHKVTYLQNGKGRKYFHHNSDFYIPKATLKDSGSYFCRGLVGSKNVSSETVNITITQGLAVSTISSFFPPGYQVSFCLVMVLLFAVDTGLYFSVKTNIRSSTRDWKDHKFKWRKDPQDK

Sequence of FcγRIIb (on cells bearing the labeled receptor, TR-FRET) (P31994 43-310 limits assumed): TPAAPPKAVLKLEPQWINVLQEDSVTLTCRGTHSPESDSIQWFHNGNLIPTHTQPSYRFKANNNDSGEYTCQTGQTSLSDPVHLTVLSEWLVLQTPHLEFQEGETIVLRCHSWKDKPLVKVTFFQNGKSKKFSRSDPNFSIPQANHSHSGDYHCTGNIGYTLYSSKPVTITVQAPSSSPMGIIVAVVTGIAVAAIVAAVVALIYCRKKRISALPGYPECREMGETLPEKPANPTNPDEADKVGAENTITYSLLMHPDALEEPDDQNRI
Sequence of FcγRIIaH131 (cell surface CD32a, cells bearing the labeled receptor, TR-FRET) (P12318 34-317): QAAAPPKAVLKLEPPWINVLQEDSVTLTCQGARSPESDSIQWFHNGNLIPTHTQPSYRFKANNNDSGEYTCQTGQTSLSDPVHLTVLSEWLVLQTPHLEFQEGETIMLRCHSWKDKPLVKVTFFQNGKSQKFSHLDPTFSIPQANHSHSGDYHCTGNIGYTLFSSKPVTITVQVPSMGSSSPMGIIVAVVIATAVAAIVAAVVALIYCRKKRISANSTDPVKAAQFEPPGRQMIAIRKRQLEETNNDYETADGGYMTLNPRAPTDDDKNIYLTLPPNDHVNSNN
Sequence of human recombinant CD64 (Fc gamma receptor I), R&D Systems (human) (P12314 16-288 limits assumed): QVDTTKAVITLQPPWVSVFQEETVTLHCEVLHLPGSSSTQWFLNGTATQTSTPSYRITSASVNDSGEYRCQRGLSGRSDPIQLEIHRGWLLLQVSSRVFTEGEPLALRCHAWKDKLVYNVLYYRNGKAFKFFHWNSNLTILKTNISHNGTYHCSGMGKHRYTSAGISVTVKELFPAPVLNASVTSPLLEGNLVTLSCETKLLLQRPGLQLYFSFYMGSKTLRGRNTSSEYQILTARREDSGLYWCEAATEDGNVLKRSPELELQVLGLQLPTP

As to “anti-CD20 mAb (CDRs from Gazyva (obinutuzumab)) (antibody)”, the CD64 Valency by SPR in test [1] was 1.5. The IC50 in test [2] was 3290 nM; in test [3], 1270 nM; in test [4], 428 nM.
